Measurements published in patent US10501502B2, “Allophycocyanin alpha-subunit evolved labeling proteins (smURFPs)” (The Regents of the University of California, priority 2016, dated 2019).
Read-outs that look alike come from different tables or passages of the source.

What was measured:
PC3 cells = assay: Photobleaching FP or FP fusions in mammalian cells; type: cell-based; details: for t50%, time to bleach for 50% emission intensity / A1, Double Exportential Decay Fit / A2, Double Exportential Decay Fit / A, Single Exponential Decay Fit / k1, Double Exportential Decay Fit / k2, Double Exportential Decay Fit / k, Single Exponential Decay Fit: PC3 cells; for t50%, time to bleach for 50% emission intensity: 25 μM BV or 1 μM BVMe2 for 4 h; for A1, Double Exportential Decay Fit / A2, Double Exportential Decay Fit / A, Single Exponential Decay Fit / k1, Double Exportential Decay Fit / k2, Double Exportential Decay Fit / k, Single Exponential Decay Fit: photobleaching; for mammalian cell photostability t50%: time to bleach 50% from an initial emission rate of 1,000 photons per s
Description: PC3 cells were transfected with 2 μg of circular DNA+5 μl Lipofectamine 2000 (Life Technologies) in 2 ml Opti-MEM (Life Technologies) for 4-5 h, transfection media was discarded, prewarmed growth media was added, and protein was produced for 48 h. 25 μM BV or 1 μM BVMe2 was incubated for 4 h. Cells were photobleached with continuous light exposure from a 150 W xenon arc lamp with eGFP EX/EM=495(10)/535(25) nm, tdTomato EX/EM=540(25)/595(50) nm, mCherry EX/EM=580(20)/[…] nm, and smURFP EX/EM=628(40)/680(30) nm focused with a 40×, 1.2 numerical aperture C-Apochromat oil-immersion lens on aZeiss Axiovert 200M inverted microscope. Photobleaching times were normalized to reflect an initial illumination intensity producing 1,000 photons per fluorescent molecule per second as previously described^37. Data was fit to a single exponential decay (F=A [exp^−kt]), where F is fluorescence that varies as a function of time, A is the fit normalized, initial fluorescence (should be 1), k is the rate of fluorescence decay (photobleaching), and t is time in s, or a double exponential decay (F=A1[exp^−k1^t]+A2[exp^−k2^t]), where F is fluorescence that varies as a function of time, A1 and A2 are the fit normalized, initial fluorescence (sum should be 1), k1 and k2 are the rates of fluorescence decay (photobleaching), and t is time in seconds, and data is shown in Table 6.

HT1080 cells = assay: FP fluorescence in HT1080 cells in vitro; type: cell-based; details: for fold greater fluorescence than mCardinal: BVMe2
[1] = FP purification and fluorescence characterization in vitro (spectra, extinction coefficient, quantum yield); type: physicochemical
Method in brief: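 His-tagged FPs expressed in E. coli with PCB or BV and Ni-NTA purified; apoproteins loaded in vitro with chromophore in PBS+10% FBS at 37 °C overnight. Extinction coefficient from BV absorbance at 390 nm or BCA protein assay; quantum yield relative to Cy5; photobleaching normalised to 1,000 photons/molecule/s.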

HEK293A cells = assay: FP stability in HEK293A cells (cycloheximide); type: cell-based; details: for fold increase in smURFP fluorescence: HEK293A
Description: HEK293A cells were transfected with pCDNA3-smURFP-IRES-eGFP and incubated for 48 h. 50 μg/ml cycloheximide+25 μM BV, 5 μM BVMe2, or no chromophore was added and cells were imaged after 1, 10, 30, 60, 120, and 225 min. Fluorescence was fit to a single exponential decay (F=A [exp^−kt]), where F is fluorescence that varies as a function of time, A is the fit initial fluorescence, k is the rate of fluorescence decay (protein degradation), and t is time in min.

[2] = smURFP/TDsmURFP + 1 or 2 chromophore, Table 7

B1: smURFP: small ultra-red fluorescent protein, SEQ ID NO: 13, homodimer, covalently attaches biliverdin (protein)
chain: MKTSEQRVNIATLLTENKKKIVDKASQDLWRRHPDLIAPGGIAFSQRDRALCLRDYGWFLHLITFCLLAGDKGPIESIGLISIREMYNSLGVPVPAMMESIRCLKEASLSLLDEEDANETAPYFDYIIKAMS
modifications: homodimer; biliverdin chromophore; smRUFP Variant Polypeptide
t50%, time to bleach for 50% emission intensity (PC3 cells): 410 s | A1, Double Exportential Decay Fit (PC3 cells): 0.23 | A2, Double Exportential Decay Fit (PC3 cells): 0.72 | A, Single Exponential Decay Fit (PC3 cells): 0.75 | k1, Double Exportential Decay Fit (PC3 cells): 0.00024 s⁻¹ | k2, Double Exportential Decay Fit (PC3 cells): 0.0022 s⁻¹ | k, Single Exponential Decay Fit (PC3 cells): 0.0008 s⁻¹ | mammalian cell photostability t50% (PC3 cells): 570 s | average time to bleach 50% emission, t50% (PC3 cells; with BV, mammalian cells (n=5)): 570 s | average time to bleach 50% emission, t50% (PC3 cells; with BVMe2, mammalian cells (n=5)): 340 s | fluorescence relative to mCherry in HT1080 cells in vitro (HT1080 cells; 12.5 μM BV for 3 h): equivalent | fold greater fluorescence than mCardinal (HT1080 cells; HT1080, T2A construct): 4 fold | Emission Maximum [1]: 670 nm | extinction coefficient (EC) [1]: 180,000 M^−1cm^−1 | increase of BV QY after covalent attachment to smURFP [1]: ~1,400 fold | quantum yield (QY) [1]: 18% | Molecular Brightnes Relative to smURFP ([1]; Table 4): 100% | Emission Maximum ([1]; Table 5): 670 nm | Excitation Maximum ([1]; Table 5): 642 nm | Extinction Coefficient ([1]; Table 5): 180,000 ^ m^−1cm^−1/chromophore | Quantum Yield ([1]; Table 5): 18% | molecular brightness relative to eGFP ([1]; Table 5): 96% | Quantum Yield ([1]; b72, as fraction): 0.20 | brightness relative to most red or far-red fluorescent proteins derived from coral ([1]; biophysical brightness): ~2 fold | Emission Maximum ([1]; evolved APCα FPs, Table 4): 670 nm | Excitation Maximum ([1]; evolved APCα FPs, Table 4): 642 nm | Extinction Coefficient ([1]; evolved APCα FPs, Table 4): 180,000 M^−1 cm^−1 | Quantum Yield ([1]; evolved APCα FPs, Table 4): 18% | excitation (absorption) maximum ([1]; running text and figure legends): 642 nm | Emission Maximum [1, 2]: 670 nm | Excitation Maximum [1, 2]: 642 nm | Extinction Coefficient [1, 2]: 180,000 M^−1 cm^−1 | Quantum Yield [1, 2]: 18% | fold increase in smURFP fluorescence (HEK293A cells; 5 μM BVMe2, 1 h): 85 fold | fold increase in smURFP fluorescence (HEK293A cells; 5 μM BVMe2, 3 h): 85 fold | fold increase in smURFP fluorescence (HEK293A cells; 5 μM BVMe2, 48 h): 125 fold | fold increase in smURFP fluorescence (HEK293A cells; 25 μM BV, 3 h): 13 fold | fold increase in smURFP fluorescence (HEK293A cells; 25 μM BV, 48 h): 27 fold | protein stability t50% (HEK293A cells; BV exposure 3 h): 30 h | protein stability t50% (HEK293A cells; BVMe2 exposure 3 h): 33 h | protein stability t50% (HEK293A cells; HEK293A cells, cycloheximide): 33 h | protein stability t50% (HEK293A cells; continuously exposed to BV, cycloheximide): 33 h | protein stability t50% (HEK293A cells; continuously exposed to BVMe2, cycloheximide): 35 h | protein stability t50% (HEK293A cells; without chromophore (apoprotein)): 17 h

B2: smURFP + BVMe2: smURFP with a single biliverdin dimethyl ester chromophore (protein)
chain: MKTSEQRVNIATLLTENKKKIVDKASQDLWRRHPDLIAPGGIAFSQRDRALCLRDYGWFLHLITFCLLAGDKGPIESIGLISIREMYNSLGVPVPAMMESIRCLKEASLSLLDEEDANETAPYFDYIIKAMS
modifications: left off: small tags and cut ends
notes: smURFP with a single biliverdin dimethyl ester chromophore
t50%, time to bleach for 50% emission intensity (PC3 cells): 190 s | A1, Double Exportential Decay Fit (PC3 cells): 0.42 | A2, Double Exportential Decay Fit (PC3 cells): 0.57 | A, Single Exponential Decay Fit (PC3 cells): 0.73 | k1, Double Exportential Decay Fit (PC3 cells): 0.020 s⁻¹ | k2, Double Exportential Decay Fit (PC3 cells): 0.0012 s⁻¹ | k, Single Exponential Decay Fit (PC3 cells): 0.0015 s⁻¹ | mammalian cell photostability t50% (PC3 cells): 340 s | fold greater fluorescence than mCardinal (HT1080 cells; HT1080 stable lines expressing each FP separately): 2 fold | Emission Maximum ([1]; Table 5): 672 nm | Excitation Maximum ([1]; Table 5): 646 nm | Extinction Coefficient ([1]; Table 5): 65,000^ m^−1cm^−1/chromophore | Quantum Yield ([1]; Table 5): 12% | molecular brightness relative to eGFP ([1]; Table 5): 23% | Emission Maximum [1, 2]: 672 nm | Excitation Maximum [1, 2]: 646 nm | Extinction Coefficient [1, 2]: 65,000 M^−1 cm^−1 | Quantum Yield [1, 2]: 12% | protein stability t50% (HEK293A cells; HEK293A cells, cycloheximide): 35 h
